Measurements taken from IntAct's records for PubMed 16619031.

B1: DNA replication regulator SLD2 (Saccharomyces cerevisiae), P34252 (parent)
chain: MYSFELDKLKIELKTWEHDFIDKNKREPTRDDIKSLRTVRQMYKQYSTLKKKQSLQRQKVDTQESVELPAHKKDHDEVVEIGPTPQVYGKAISIFDMNLSPIKPIYMTFTNNIDVNNDNSKTISNESSPRKTILLKSSPADRTLVAEPISSVKRQLNFQMLNASSTRTPTSSPCKNRNGKLVEIKKCSPTINPPLESGKPSGYYGPNSPLKLDEENIHLNISLNSSTKRRLQIAYPSLQKTPSKDQADISTSFSPSPLIRRPLTKSLIELAREHTEIVKEFGVLQEEDIEEEEEGEEGENGYDEKNHEDDFGLEDELIRPKVVKDIFQEDDDNDDSQAREDTFIRKRPKRRKVIRRLRDNDPETETAGFERDVHKELVKLKRRKVAEFLGSTSQISDTEFEHDPEASSGVVSSEQKPTAKRKGRKKYNLVSNNFRRLKLPKKNRFSNGRWGRR
partner: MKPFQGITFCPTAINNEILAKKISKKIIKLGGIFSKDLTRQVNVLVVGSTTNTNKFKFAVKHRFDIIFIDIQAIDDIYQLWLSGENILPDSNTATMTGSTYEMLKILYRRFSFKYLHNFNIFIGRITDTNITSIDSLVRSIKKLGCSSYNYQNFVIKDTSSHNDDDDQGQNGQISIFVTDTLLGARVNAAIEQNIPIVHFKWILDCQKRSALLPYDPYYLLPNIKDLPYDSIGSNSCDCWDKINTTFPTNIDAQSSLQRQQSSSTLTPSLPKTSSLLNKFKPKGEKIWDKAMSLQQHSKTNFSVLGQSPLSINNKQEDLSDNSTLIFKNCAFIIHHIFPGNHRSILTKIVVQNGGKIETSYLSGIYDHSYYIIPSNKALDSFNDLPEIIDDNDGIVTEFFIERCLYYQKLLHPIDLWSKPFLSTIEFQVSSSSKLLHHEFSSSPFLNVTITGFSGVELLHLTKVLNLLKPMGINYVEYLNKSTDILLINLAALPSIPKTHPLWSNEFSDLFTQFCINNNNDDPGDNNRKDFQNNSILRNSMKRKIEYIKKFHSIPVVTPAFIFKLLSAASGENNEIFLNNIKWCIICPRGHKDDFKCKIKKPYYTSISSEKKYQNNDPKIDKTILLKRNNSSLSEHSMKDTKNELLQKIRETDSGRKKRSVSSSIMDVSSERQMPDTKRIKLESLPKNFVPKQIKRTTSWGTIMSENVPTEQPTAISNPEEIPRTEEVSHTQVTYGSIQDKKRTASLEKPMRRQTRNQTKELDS

Variants of: B1
Details: with dpb11_yeast DPB11, P47027

effect of a mutation on the interaction | Variant
disrupting interaction | S172A
disrupting interaction | T241A
disrupting interaction | S208A
disrupting interaction | T168A
disrupting interaction | S128A
disrupting interaction | S100A

Variants of: B1
Details: with dpb11_yeast DPB11, P47027
Remark: another data set of the same source

effect of a mutation on the interaction | Variant
disrupting interaction | T84A
